# Test results taken from paper PMC10786891, “Massively parallel profiling of RNA-targeting CRISPR-Cas13d”.
# T1: EsCas13d, nuclease-dead (Eubacterium siraeum, UniProt B0MS50, R295A;H300A;R849A;H854A)
# T1 sequence: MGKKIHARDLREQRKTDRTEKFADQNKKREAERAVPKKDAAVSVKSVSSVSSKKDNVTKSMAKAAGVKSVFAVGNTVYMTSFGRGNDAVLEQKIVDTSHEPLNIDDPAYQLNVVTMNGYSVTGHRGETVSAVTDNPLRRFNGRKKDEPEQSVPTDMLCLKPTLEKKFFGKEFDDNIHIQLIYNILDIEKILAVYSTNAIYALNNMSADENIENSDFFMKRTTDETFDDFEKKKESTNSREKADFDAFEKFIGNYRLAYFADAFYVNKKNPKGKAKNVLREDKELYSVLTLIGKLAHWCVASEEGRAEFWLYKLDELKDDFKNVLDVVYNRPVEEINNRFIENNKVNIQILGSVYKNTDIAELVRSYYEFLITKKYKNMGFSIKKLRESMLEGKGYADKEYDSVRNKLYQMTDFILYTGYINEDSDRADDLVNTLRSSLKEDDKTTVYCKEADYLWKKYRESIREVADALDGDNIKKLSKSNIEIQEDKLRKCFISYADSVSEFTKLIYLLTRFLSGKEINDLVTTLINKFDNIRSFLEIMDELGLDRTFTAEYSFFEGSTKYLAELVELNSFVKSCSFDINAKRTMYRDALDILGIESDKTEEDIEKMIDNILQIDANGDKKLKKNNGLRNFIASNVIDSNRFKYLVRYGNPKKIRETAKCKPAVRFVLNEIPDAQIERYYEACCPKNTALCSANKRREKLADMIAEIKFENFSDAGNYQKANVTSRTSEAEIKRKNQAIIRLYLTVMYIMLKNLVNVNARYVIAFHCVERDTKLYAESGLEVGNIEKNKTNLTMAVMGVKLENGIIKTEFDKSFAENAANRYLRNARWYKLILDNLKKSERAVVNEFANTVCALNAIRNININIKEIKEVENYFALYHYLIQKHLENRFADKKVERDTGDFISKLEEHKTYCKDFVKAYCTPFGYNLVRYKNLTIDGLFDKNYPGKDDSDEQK
# Target: T1, EsCas13d, nuclease-dead
# Test: crRNA (strand 1, pre-loaded); Mg2+; 40 mM Tris-HCl pH 7.5, 150 mM NaCl, 6 mM MgCl2, 1 mM DTT, 0.1% Tween-20, 0.2 mg/ml BSA; 25 C; 10 min per concentration, then washed
# Details: tags: His6-TwinStrep-SUMO cleaved; N-terminal SNAP kept (SNAP-Surface 488); label: 3' end held by stalled T7 RNA polymerase
row,Binder,Kd [nM]
1,"target 1 insG 3' of 22,insU 3' of 7 (mixed) RNA 1: CACCCGUGCAAAAAUGCAGGGGUCUAAAACUGAGCGGAUAACCUCUCUAUGG RNA 2: GGGAAUGGAUCCACAUCUACGAAUUCGUACGCAUAGAGAGGUUAUCUCGCUCACCGAGAUCGGAAGAGCACACGU",26.5 ± 1.1
2,"target 1 insC 3' of 13,insU 3' of 5 (mixed) RNA 1: CACCCGUGCAAAAAUGCAGGGGUCUAAAACUGAGCGGAUAACCUCUCUAUGG RNA 2: GGGAAUGGAUCCACAUCUACGAAUUCGUACCAUAGAGAGCGUUAUCCGUCUCACCGAGAUCGGAAGAGCACACGU",8.1 ± 0.8
3,"target 3 insG 3' of 7,insG 3' of 5 (mixed) RNA 1: CACCCGUGCAAAAUUGCAGGGGUCUAAAACGACCUGAAUAUUUCAGAUCAAA RNA 2: GGGAAUGGAUCCACAUCUACGAAUUCGUUUUUGAUCUGAAAUAUUGCAGGGUCUGCAGAUCGGAAGAGCACACGU",46.5 ± 7.5
4,target 3 insG 3' of 6 (mixed) RNA 1: CACCCGUGCAAAAUUGCAGGGGUCUAAAACGACCUGAAUAUUUCAGAUCAAA RNA 2: GGGAAUGGAUCCACAUCUACGAAUUCGUUUUUGAUCUGAAAUAUUCGAGGUCUGCAGAUCGGAAGAGCACACGU,8.45 ± 0.75
5,"target 3 U2G,G14U (mixed) RNA 1: CACCCGUGCAAAAUUGCAGGGGUCUAAAACGACCUGAAUAUUUCAGAUCAAA RNA 2: GGGAAUGGAUCCACAUCUACGAAUUCGUUUUUGAUCUUAAAUAUUCAGGGCUGCAGAUCGGAAGAGCACACGU",73.5 ± 13.5
6,"target 3 insA 3' of 4,insA 3' of 1 (mixed) RNA 1: CACCCGUGCAAAAUUGCAGGGGUCUAAAACGACCUGAAUAUUUCAGAUCAAA RNA 2: GGGAAUGGAUCCACAUCUACGAAUUCGUUUUUGAUCUGAAAUAUUCAGAGUCAUGCAGAUCGGAAGAGCACACGU",50.5 ± 23
7,"target 3 U7G,U22C (mixed) RNA 1: CACCCGUGCAAAAUUGCAGGGGUCUAAAACGACCUGAAUAUUUCAGAUCAAA RNA 2: GGGAAUGGAUCCACAUCUACGAAUUCGUUCUUGAUCUGAAAUAUGCAGGUCUGCAGAUCGGAAGAGCACACGU",65 ± 26
8,"target 3 insA 3' of 8,insG 3' of 7 (mixed) RNA 1: CACCCGUGCAAAAUUGCAGGGGUCUAAAACGACCUGAAUAUUUCAGAUCAAA RNA 2: GGGAAUGGAUCCACAUCUACGAAUUCGUUUUUGAUCUGAAAUAUAUGCAGGUCUGCAGAUCGGAAGAGCACACGU",72.5 ± 12
9,"target 3 C1G,G4A (mixed) RNA 1: CACCCGUGCAAAAUUGCAGGGGUCUAAAACGACCUGAAUAUUUCAGAUCAAA RNA 2: GGGAAUGGAUCCACAUCUACGAAUUCGUUUUUGAUCUGAAAUAUUCAAGUGUGCAGAUCGGAAGAGCACACGU",15.9 ± 1.8
10,"target 3 insU 3' of 22,insA 3' of 19 (mixed) RNA 1: CACCCGUGCAAAAUUGCAGGGGUCUAAAACGACCUGAAUAUUUCAGAUCAAA RNA 2: GGGAAUGGAUCCACAUCUACGAAUUCGUUUUUUGAAUCUGAAAUAUUCAGGUCUGCAGAUCGGAAGAGCACACGU",77 ± 16
11,"target 3 del1,del5 (mixed) RNA 1: CACCCGUGCAAAAUUGCAGGGGUCUAAAACGACCUGAAUAUUUCAGAUCAAA RNA 2: GGGAAUGGAUCCACAUCUACGAAUUCGUUUUUGAUCUGAAAUAUUCGGUUGCAGAUCGGAAGAGCACACGU",14 ± 2.2
12,"target 3 G4A,U21A (mixed) RNA 1: CACCCGUGCAAAAUUGCAGGGGUCUAAAACGACCUGAAUAUUUCAGAUCAAA RNA 2: GGGAAUGGAUCCACAUCUACGAAUUCGUUUAUGAUCUGAAAUAUUCAAGUCUGCAGAUCGGAAGAGCACACGU",35.1 ± 3.15
13,"target 3 C6U,A12G (mixed) RNA 1: CACCCGUGCAAAAUUGCAGGGGUCUAAAACGACCUGAAUAUUUCAGAUCAAA RNA 2: GGGAAUGGAUCCACAUCUACGAAUUCGUUUUUGAUCUGAGAUAUUUAGGUCUGCAGAUCGGAAGAGCACACGU",33 ± 5
14,"target 3 G3A,A5U (mixed) RNA 1: CACCCGUGCAAAAUUGCAGGGGUCUAAAACGACCUGAAUAUUUCAGAUCAAA RNA 2: GGGAAUGGAUCCACAUCUACGAAUUCGUUUUUGAUCUGAAAUAUUCUGAUCUGCAGAUCGGAAGAGCACACGU",61.5 ± 8.5
15,"target 3 U2A,G3U (mixed) RNA 1: CACCCGUGCAAAAUUGCAGGGGUCUAAAACGACCUGAAUAUUUCAGAUCAAA RNA 2: GGGAAUGGAUCCACAUCUACGAAUUCGUUUUUGAUCUGAAAUAUUCAGUACUGCAGAUCGGAAGAGCACACGU",68 ± 14.5
16,"target 3 insU 3' of 5,insG 3' of 5 (mixed) RNA 1: CACCCGUGCAAAAUUGCAGGGGUCUAAAACGACCUGAAUAUUUCAGAUCAAA RNA 2: GGGAAUGGAUCCACAUCUACGAAUUCGUUUUUGAUCUGAAAUAUUCAUGGGUCUGCAGAUCGGAAGAGCACACGU",4.74 ± 0.56
17,"target 3 C1A,U2G (mixed) RNA 1: CACCCGUGCAAAAUUGCAGGGGUCUAAAACGACCUGAAUAUUUCAGAUCAAA RNA 2: GGGAAUGGAUCCACAUCUACGAAUUCGUUUUUGAUCUGAAAUAUUCAGGGAUGCAGAUCGGAAGAGCACACGU",73.5 ± 22
18,"target 3 insA 3' of 4,insG 3' of 1 (mixed) RNA 1: CACCCGUGCAAAAUUGCAGGGGUCUAAAACGACCUGAAUAUUUCAGAUCAAA RNA 2: GGGAAUGGAUCCACAUCUACGAAUUCGUUUUUGAUCUGAAAUAUUCAGAGUCGUGCAGAUCGGAAGAGCACACGU",42 ± 13.5
19,target 3 insG 3' of 8 (mixed) RNA 1: CACCCGUGCAAAAUUGCAGGGGUCUAAAACGACCUGAAUAUUUCAGAUCAAA RNA 2: GGGAAUGGAUCCACAUCUACGAAUUCGUUUUUGAUCUGAAAUAUGUCAGGUCUGCAGAUCGGAAGAGCACACGU,52.5 ± 11.5
20,"target 3 insA 3' of 4,insU 3' of 1 (mixed) RNA 1: CACCCGUGCAAAAUUGCAGGGGUCUAAAACGACCUGAAUAUUUCAGAUCAAA RNA 2: GGGAAUGGAUCCACAUCUACGAAUUCGUUUUUGAUCUGAAAUAUUCAGAGUCUUGCAGAUCGGAAGAGCACACGU",70 ± 32
21,"target 3 insG 3' of 8,insG 3' of 5 (mixed) RNA 1: CACCCGUGCAAAAUUGCAGGGGUCUAAAACGACCUGAAUAUUUCAGAUCAAA RNA 2: GGGAAUGGAUCCACAUCUACGAAUUCGUUUUUGAUCUGAAAUAUGUCAGGGUCUGCAGAUCGGAAGAGCACACGU",62 ± 11
22,"target 3 insA 3' of 22,insA 3' of 4 (mixed) RNA 1: CACCCGUGCAAAAUUGCAGGGGUCUAAAACGACCUGAAUAUUUCAGAUCAAA RNA 2: GGGAAUGGAUCCACAUCUACGAAUUCGUUUAUUGAUCUGAAAUAUUCAGAGUCUGCAGAUCGGAAGAGCACACGU",49 ± 10
23,"target 3 insC 3' of 7,insG 3' of 6 (mixed) RNA 1: CACCCGUGCAAAAUUGCAGGGGUCUAAAACGACCUGAAUAUUUCAGAUCAAA RNA 2: GGGAAUGGAUCCACAUCUACGAAUUCGUUUUUGAUCUGAAAUAUUCCGAGGUCUGCAGAUCGGAAGAGCACACGU",63 ± 6
24,"target 3 insA 3' of 22,insA 3' of 14 (mixed) RNA 1: CACCCGUGCAAAAUUGCAGGGGUCUAAAACGACCUGAAUAUUUCAGAUCAAA RNA 2: GGGAAUGGAUCCACAUCUACGAAUUCGUUUAUUGAUCUGAAAAUAUUCAGGUCUGCAGAUCGGAAGAGCACACGU",94 ± 36
